Data from article PMC9932118.
Read-outs that look alike come from different tables or passages of the source.

Legend:
[1] = molecular target: T1, ZBTB7A long fragment (Homo sapiens, UniProt O95365 341-505); test: X-ray crystallography
[2] = molecular target: T2, ZBTB7A ZF1-4 short fragment (Homo sapiens, UniProt O95365 370-500); test: X-ray crystallography
[3] = molecular target: T2, ZBTB7A ZF1-4 short fragment; test: X-ray crystallography; remark: listed apart in the source
[4] = molecular target: T2, ZBTB7A ZF1-4 short fragment; test: FP
[5] = molecular target: T1, ZBTB7A long fragment; test: FP
[6] = molecular target: T2, ZBTB7A ZF1-4 short fragment; test: X-ray crystallography; remark: listed apart in the source
[7] = molecular target: T2, ZBTB7A ZF1-4 short fragment; test: X-ray crystallography; remark: listed apart in the source

T2 sequence (O95365 370-500): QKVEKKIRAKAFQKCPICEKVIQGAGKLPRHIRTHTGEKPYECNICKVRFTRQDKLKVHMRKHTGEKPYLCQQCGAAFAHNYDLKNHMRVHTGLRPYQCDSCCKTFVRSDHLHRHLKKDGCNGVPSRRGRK
T1 sequence (O95365 341-505): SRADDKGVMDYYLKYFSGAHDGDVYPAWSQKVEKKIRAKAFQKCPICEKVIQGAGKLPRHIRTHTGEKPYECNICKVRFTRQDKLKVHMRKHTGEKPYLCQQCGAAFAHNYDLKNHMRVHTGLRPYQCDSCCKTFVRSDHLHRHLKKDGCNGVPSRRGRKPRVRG

B1: CAST crystal DNA 8E3E (dsDNA)
DNA 1: GGTAAAAGACCCCTCCCCAAA
DNA 2: CTTTGGGGAGGGGTCTTTTAC
B1: binds [1].

B2: CAST crystal DNA 8E3D (dsDNA)
DNA 1: GGTAAAAGACCCCTCCCCAAAT
DNA 2: ATTTGGGGAGGGGTCTTTTACC
B2: binds [2].

B3: GaCCC crystal DNA 7N5U (dsDNA)
DNA 1: GGGACCCTTGATGTTT
DNA 2: CAAACATCAAGGGTCC
B3: binds [3].

B4: oligo #6 CAST 16 bp (dsDNA)
DNA 1: AAGACCCCTCCCCGAA
DNA 2: TTCGGGGAGGGGTCTT
With B4 the Kd [4] was roughly 80 nM and the Kd [5] was roughly 80 nM.

B5: GaCCC crystal DNA 7N5W (dsDNA)
DNA 1: GGGACCCTTCATGTTT
DNA 2: CAAACATGAAGGGTCC
B5: binds [6].

B6: GaCCC crystal DNA 7N5V (dsDNA)
DNA 1: GGGACCCTTGATGTTT
DNA 2: AAACATCAAGGGTCCC
B6: binds [7].
